Tested on: MS2 coat protein
Assay: apparent KD of MS2 coat protein; designed switch direction (-1 OFF switch, 1 ON switch): -1; higher = weaker reporter binding
Method in brief: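 Normalised cluster fluorescence was curve-fitted, and each design's median over clusters is its apparent KD. Before this, SNAP-549-labelled MS2 coat protein was titrated from 0.7 or 1.5 nM, doubling to 3 µM, over RNA switches transcribed on Illumina chips by stalled E. coli RNA polymerase. Titrations had no input, 200 uM small-molecule ligand, or an oligonucleotide input, and steps lasted 0.8–1.5 h (lowest) to 10–20 min (highest).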

[1] = Eterna round: R95, input ligand: FMN 200 uM
[2] = Eterna round: R95, input ligand: microRNA oligo, concentration not stated
[3] = Eterna round: R95, input ligand: none
[4] = input ligand: microRNA oligo, concentration not stated

Sequence | apparent KD of MS2 coat protein [2] [µM] | apparent KD of MS2 coat protein (input ligand: FMN 200 uM) [µM] | apparent KD of MS2 coat protein (input ligand: none) [µM] | other results
GAGAAGGUAGGAUAUACGAAGAAAAAGGGUAGAAUAAUAACACAUGAGGAUCACCCAUGUAGAAGGACCAAGAG [Mat - Exclusion 2 - Mod of my Tesla design - D19] (puzzle: Exclusion 2) | 0.0167 |  |  | apparent KD of MS2 coat protein [1]: 0.0443 µM; apparent KD of MS2 coat protein [3]: 0.0204 µM
GAGAAGGUAGGAUAUACGAAUAAAAAGGGUAGAAUAAGAACACAUGAGGAUCACCCAUGUAGAAGGACCAAGAG [Mat - Exclusion 2 - Mod of my Tesla design - D21] (puzzle: Exclusion 2) | 0.0184 |  |  | apparent KD of MS2 coat protein [1]: 0.0328 µM; apparent KD of MS2 coat protein [3]: 0.0185 µM
GAGAAGGUAGGAUAUACGAAUAAAUAGGGUAGGAAGAAGACACAUGAGGAUCACCCAUGUAGAAGGACCAAGAG [Mat - Exclusion 2 - Mod of my Tesla design - D36] (puzzle: Exclusion 2) | 0.0146 |  |  | apparent KD of MS2 coat protein [1]: 0.0293 µM; apparent KD of MS2 coat protein [3]: 0.0178 µM
GAGAAGUGAGGAUAUACGAUAAGGAUGAAAGGAAGGAAUGAGUAGAAGGCACAUGAGGAUCACCCAUGUAGAGU [JR_Exclu4_Sub079] (puzzle: Exclusion 4) | 0.0251 |  |  | apparent KD of MS2 coat protein [1]: 0.0241 µM; apparent KD of MS2 coat protein [3]: 0.0263 µM
GAGAAUUUAUAGGAUAUCGUAUGGAUAAUUUAACGAGAAGGAUGAACAUGAGGAUCACCCAUGUGGUAUCAUGG [JL-ex6-3.14] (puzzle: Exclusion 6) | 0.28 |  |  | apparent KD of MS2 coat protein [1]: 0.27 µM; apparent KD of MS2 coat protein [3]: 0.247 µM
GAGACGAAAGGAUAUACAUGAGGAUCACCCAUGUAUGAAACAUGAGAAGACACCGCUGGUAGAAGGUUUGGAAA [Eternabot (Original) Solution 46] (Eterna round: R97, puzzle: Exclusion 3) |  | 0.0268 | 0.0232 | 
GAGAGAAUCUAGGAUAUAUCAAGAGAAGGAGAGAUAGAAGGAGGGACAUGAGGAUCACCCAUGUCUUCGUGUAG [Default title] (Eterna round: R97, puzzle: Exclusion 6) |  | 0.0156 | 0.016 | 
GAGAGCUGAGGAUAUACAUGAGGAUCACCCAUGUACCACCUUGCCGGCACAGAUCCUUGUAGAAGGCGGCUCUA [Eternabot (L2) Solution 57] (Eterna round: R97, puzzle: Exclusion 3) |  | 0.0513 | 0.161 | 
GAGAUGUGAGGAUAUCUGGACCGUGGAAGAGCCACGGUCCGAGAGAAGGCACAUGAGGAUCACCCAUGUGAUGA [Inerusce] (puzzle: Exclusion 4) | 0.0428 |  |  | 
GAGCCAUCGUGAGAUGGCUAAAUUACAUGAGGAUCACCCAUGUAGGAUAUCGAUUGCUUUGCAGUCGAGAAGGACAUGUUUAAU [JL ENG3 3.99] (Eterna round: R96, puzzle: Exclusion NG 3) |  | 0.0675 | 0.0329 | apparent KD of MS2 coat protein [4]: 0.0278 µM
GAGCCAUCGUGAGAUGGCUAACAUACAUGAGGAUCACCCAUGUAGGAUAUCGAUUGCUUUGCAGUCGAGAAGGACAUGUUUAAU [JL ENG3 3.96] (Eterna round: R96, puzzle: Exclusion NG 3) |  |  |  | apparent KD of MS2 coat protein [4]: 0.0191 µM
GAGCUGUGAGGAUAUACAUGAGGAUCACCCAUGUUAAGGAAGUGGUGAAUAAUUUAGUGUAGAAGGCACUUAUU [JR_Ex3_Sub023] (Eterna round: R97, puzzle: Exclusion 3) |  | 0.53 | 0.116 | 
GAGGACUGAGGAUAUGCGUUGGUACCUCGUAGUAAGCAAAGACAUGAGGAUCACCCAUGUAGAAGGCGGAAAAG [Xegeinenxe] (puzzle: Exclusion 2) | 0.0586 |  |  | apparent KD of MS2 coat protein [1]: 0.15 µM; apparent KD of MS2 coat protein [3]: 0.0526 µM
GAGGAGCAAGGAUAUACGAGGAUAUGGUAGGUUGGAGAGUGACAUGAGGAUCACCCAUGUAGAAGGUGCGAGGG [JR_Exclu2_Sub098] (puzzle: Exclusion 2) | 0.0555 |  |  | 
GAGUAGGGAGGAUAUACGUGCUCAAUCCCGCGAAGCGGGAAACAUGAGGAUCACCCAUGUAGAAGGCCCAUAAA [Inceveus] (puzzle: Exclusion 2) | 0.171 |  |  | apparent KD of MS2 coat protein [1]: 0.0884 µM; apparent KD of MS2 coat protein [3]: 0.185 µM
GAGUGACAUGAGGAUCACCCAUGUGAGGAUAUCGGACGGACCAAGUUAACAUCCGCCGCGAGAAGGCACAUCGG [Exclusion 1 V23] (puzzle: Exclusion 1) | 0.104 |  |  | 
GAGUGACAUGAGGAUCACCCAUGUGAGGAUAUCGGACGGACCUAGUUAACUUCCGCCGCGAGAAGGCACAUCGG [Exclusion 1 V23] (Eterna round: R96, puzzle: Exclusion 1) |  | 0.0752 | 0.084 | apparent KD of MS2 coat protein [4]: 0.0456 µM

Sequence | apparent KD of MS2 coat protein [2] [µM] | apparent KD of MS2 coat protein (input ligand: FMN 200 uM) [µM] | apparent KD of MS2 coat protein (input ligand: none) [µM] | other results
GAGUGACAUGAGGAUCACCCAUGUGAGGAUAUCGGACGGACCUAGUUAACUUCCGCCGCGAGAAGGCACAUCGG [Exclusion 1 V23] (puzzle: Exclusion 1) | 0.0702 |  |  | 
GAGUGACAUGAGGAUCACCCAUGUGAGGAUAUCGGACGGACCUAGUUAGCUUCCGCCGCGAGAAGGCACAUCGG [Exclusion 1 V24] (puzzle: Exclusion 1) | 0.0631 |  |  | 
GAGUUAACAUGAGGAAUAUACAUGAGGAUCACCCAUGUUAACAAAUUUUUUGCUCGUCUUAUAACAACAAUUAACUC [Alarm 4 - Jieux - Sensor, turn-off variant 1] (Eterna round: R97, puzzle: Sensor, turn-off variant 1) |  | 0.434 | 0.206 | 
GAUAAACAUGAGGAUCACCCAUGUGAGGAUAUGCGUACGUUGUCCGUAGGCGACGUGCGCAGAAGGCGCAAGGU [Mat - Mod of JL D99] (puzzle: Exclusion 1) | 0.073 |  |  | 
GAUACACAUGAGGAUCACCCAUGUGAGGAUAUGCGUACGUUGUCCGUAGGCGACGUGCGCAGAAGGCGCUUGGU [Mat - Mod of JL D98] (puzzle: Exclusion 1) | 0.0573 |  |  | 
GAUACACAUGAGGAUCACCCAUGUUAGGAUAUUAGCGGGAAAGCUGUCAAAACGCCGAUGAGAAGGAACAGGAG [Excls1-IX] (puzzle: Exclusion 1) | 0.0319 |  |  | 
GAUAGAGAGCAGGAUAUCUUAGAUAUGUAAUAUAGAGAAGGGCUCACAUGAGGAUCACCCAUGUGGUCCUAGAU [JL Dibiri mod 14] (puzzle: Exclusion 6) | 0.0159 |  |  | apparent KD of MS2 coat protein [1]: 0.094 µM; apparent KD of MS2 coat protein [3]: 0.0161 µM
GAUCAACAUGAGGAUCACCCAUGUGAGGAUAUGAUACUAUGUACUUCGGUACAUAGUAUCAGAAGGCAUGUGAA [Ex1-3: 77] (puzzle: Exclusion 1) | 0.0801 |  |  | 
GAUCAACAUGAGGAUCACCCAUGUGAGGAUAUGUAUCAUAGAUCUUCGGAUCUAUGAUACAGAAGGCAUGUGGA [Ex1-3: 100c] (puzzle: Exclusion 1) | 0.144 |  |  | 
GAUCACUGAGGAUAUACACAGAUACAAAGUAUCUGACGGUGACAUGAGGAUCACCCAUGUAGAAGGCAGAGGUC [Omei Ex2 B2] (Eterna round: R97, puzzle: Exclusion 2) |  | 0.36 | 0.696 | 
GAUCAGUAAGGAUAUACAUGAGGAUCACCCAUGUGGAUGGCCGCGCAUUUCCAUUCAGGUAGAAGGUACUGAGU [Eternabot (L1) Solution 94] (Eterna round: R97, puzzle: Exclusion 3) |  | 0.0543 | 0.0368 | 
GAUCGCCGUGUCAGGAUAUCUUGUGUACCCACGUUAGAGAAGGGACAUGAGGAUCACCCAUGUACCCUGGUUCU [Brourd's mod of Exclusion 4 (MOD3 of Nando's BmEX4 C.21)] (Eterna round: R97, puzzle: Brourd's mod of Exclusion 4) |  | 0.0187 | 0.0178 | 
GAUCUGACAGGAUAUACAUGAGGAUCACCCAUGUACGAGCUAGCGAAAGCUAGCUCAGGUAGAAGGGUCAGAUC [Ex3 dot plot directed v5] (puzzle: Exclusion 3) | 0.0116 |  |  | 
GAUGAGGGAGUGAGGAUAUAUACCGGCUCACCGGAGUAGAAGGCACAUGAGGAUCACCCAUGUGACCUUAACCU [Eternabot (L2) Solution 92] (Eterna round: R97, puzzle: Brourd's mod of Exclusion 4) |  | 0.0153 | 0.0141 | 
GAUGGACAUGAGGAUCACCCAUGUAAGGAUAUUGAUUAUGGUUAUAAAUAAUUAUGGUCAAGAAGGUACUCGUC [-17.8, -14.8 kcal, A 34%] (Eterna round: R97, puzzle: Exclusion 1) |  | 0.114 | 0.147 | 
GAUUACUGCAAGCUUUGGAACAUGAGGAUCACCCAUGUUCGUCUUAUUGAUCUAGGUACGCUGACGUACCUAGAUCU [JL-sv1-2.30 Brourd mod] (puzzle: Sensor v3, turn-off variant 1) | 0.0162 |  |  | apparent KD of MS2 coat protein [1]: 0.0155 µM; apparent KD of MS2 coat protein [3]: 0.0136 µM

Source: the supplement of paper PMC9170038
